Assays:
[1] = biological target: Thermococcus kodakarensis proliferating cell nuclear antigen PCNA1 (TkoPCNA), homotrimer (UniProt Q5JF32); test: SPR; details: PCNA immobilized on a sensor chip, PolD at 500 nM, read off a plot
[2] = biological target: T1, PolDΔPIPΔKR: PolD with DP1(K326A K328A) and DP2(K432A R434A R781A, Δ1314-1324) (Thermococcus kodakarensis, UniProt Q5JET0 1-1313, K432A | R434A | R781A, DP1 residue 328 is Ala (wild type printed as both K328 and R328, so the Ala is spliced in). DP2 is the mature intein-free form, residues 1-1313 (PIP box 1314-1324 deleted; mature 1313 = precursor …); test: SPR
[3] = biological target: T2, PolDΔKR: PolD with DP1(K326A K328A) and DP2(K432A R434A R781A) (Thermococcus kodakarensis, DP1 residue 328 is Ala (wild type printed as both K328 and R328, so the Ala is spliced in; the mutagenic primer encodes Ala-Val-Ala at 326-328). DP2 is the mature intein-free form (1324 aa). Zn bound …); test: SPR
[4] = biological target: T3, Thermococcus kodakarensis DNA polymerase D (PolD), wild type, DP1-DP2 heterodimer (Thermococcus kodakarensis); test: SPR
[5] = biological target: T4, PolDΔPIP: PolD with DP2(Δ1314-1324) (Thermococcus kodakarensis); test: SPR
[6] = biological target: the molecule itself; test: cryo-EM structure; PolD-PCNA-primed DNA complex reconstituted from purified proteins without Mg2+ and isolated by gel filtration; Form A with DNA (25/35) at 6.9 Å, Form A and Form B with DNA (30/45); crystal structures and homology models fitted
[7] = biological target: T1, PolDΔPIPΔKR: PolD with DP1(K326A K328A) …; test: SPR; remark: listed apart in the source
[8] = biological target: T2, PolDΔKR: PolD with DP1(K326A K328A) and …; test: SPR; remark: listed apart in the source
[9] = biological target: T3, Thermococcus kodakarensis DNA …; test: SPR; remark: listed apart in the source
[10] = biological target: T4, PolDΔPIP: PolD with DP2(Δ1314-1324); test: SPR; remark: listed apart in the source
[11] = biological target: DP1 (PolD small subunit);DP2 (PolD large subunit);TkoPCNA (PCNA1) (Thermococcus kodakarensis;Thermococcus …, UniProt Q5JET1;Q5JET0;Q5JET0;Q5JF32 1-735;1-963;1438-1798;1-249, ||); test: gel filtration; 50 mM NaCl elution; EMSA: 20 mM Tris-HCl pH 8.0, 10 mM KCl, 10 mM (NH4)2SO4, 1 mM DTT, 0.1 mg/ml BSA, 2 mM MgCl2, 40 C 10 min, 0.8% agarose 0.1x TAE; EM complex: 50 mM Tris-HCl pH; details: protein: recombinant;recombinant;recombinant; tags: ;;; copies: 1;1;1;3; primer-template, 5' overhang 15 nt on template
[12] = biological target: T5, DP1 (PolD small subunit);DP2CTD (Thermococcus kodakarensis;Thermococcus …, UniProt Q5JET1;Q5JET0 1-735;1474-1798, |); test: EMSA; 2 mM MgCl2; EMSA: 20 mM Tris-HCl pH 8.0, 10 mM KCl, 10 mM (NH4)2SO4, 1 mM DTT, 0.1 mg/ml BSA, 2 mM MgCl2, 40 C 10 min, 0.8% agarose 0.1x TAE; EM complex: 50 mM Tris-HCl pH; details: protein: recombinant;recombinant; tags: ;His; copies: 1;1; label: 5' Cy5 on primer; primer-template, 5' overhang 13 nt on template
T5 sequence 1: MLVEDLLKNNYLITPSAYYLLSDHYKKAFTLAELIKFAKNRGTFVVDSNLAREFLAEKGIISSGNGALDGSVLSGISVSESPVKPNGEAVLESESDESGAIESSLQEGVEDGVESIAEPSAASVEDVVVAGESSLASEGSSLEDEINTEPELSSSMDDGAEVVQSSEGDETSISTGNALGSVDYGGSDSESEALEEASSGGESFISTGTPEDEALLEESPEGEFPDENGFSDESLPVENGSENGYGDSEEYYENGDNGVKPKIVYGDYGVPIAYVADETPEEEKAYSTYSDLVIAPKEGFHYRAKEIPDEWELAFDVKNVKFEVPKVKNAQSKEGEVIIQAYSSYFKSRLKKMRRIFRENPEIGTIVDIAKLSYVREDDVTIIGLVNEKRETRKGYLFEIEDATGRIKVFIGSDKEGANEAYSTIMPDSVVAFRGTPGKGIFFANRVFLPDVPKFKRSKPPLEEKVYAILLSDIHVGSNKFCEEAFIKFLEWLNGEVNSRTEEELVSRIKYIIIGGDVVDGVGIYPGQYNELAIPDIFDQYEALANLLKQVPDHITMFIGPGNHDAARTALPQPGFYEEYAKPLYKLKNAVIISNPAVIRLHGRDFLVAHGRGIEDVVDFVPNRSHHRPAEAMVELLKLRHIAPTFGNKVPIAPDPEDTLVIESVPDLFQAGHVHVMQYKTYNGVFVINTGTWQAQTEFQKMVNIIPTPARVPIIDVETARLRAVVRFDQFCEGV
T5 sequence 2: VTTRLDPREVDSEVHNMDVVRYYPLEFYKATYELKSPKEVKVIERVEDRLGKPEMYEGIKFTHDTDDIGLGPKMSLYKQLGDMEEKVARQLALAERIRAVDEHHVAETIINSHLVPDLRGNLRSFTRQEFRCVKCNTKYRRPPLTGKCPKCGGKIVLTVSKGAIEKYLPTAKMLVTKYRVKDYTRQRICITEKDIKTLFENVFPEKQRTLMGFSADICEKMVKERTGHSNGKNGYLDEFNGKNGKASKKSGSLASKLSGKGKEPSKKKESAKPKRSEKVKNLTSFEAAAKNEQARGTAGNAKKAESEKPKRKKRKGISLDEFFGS

DP2CTD = biological target: T6, DP2CTD (Thermococcus kodakarensis, UniProt Q5JET0 1474-1798); test: EMSA; 2 mM MgCl2; readily detectable but weaker than DP1-DP2CTD; EMSA: 20 mM Tris-HCl pH 8.0, 10 mM KCl, 10 mM (NH4)2SO4, 1 mM DTT, 0.1 mg/ml BSA, 2 mM MgCl2, 40 C 10 min, 0.8% agarose 0.1x TAE; EM complex: 50 mM Tris-HCl pH; details: protein: recombinant; tags: His; label: 5' Cy5 on primer; primer-template, 5' overhang 13 nt on template
T6 sequence: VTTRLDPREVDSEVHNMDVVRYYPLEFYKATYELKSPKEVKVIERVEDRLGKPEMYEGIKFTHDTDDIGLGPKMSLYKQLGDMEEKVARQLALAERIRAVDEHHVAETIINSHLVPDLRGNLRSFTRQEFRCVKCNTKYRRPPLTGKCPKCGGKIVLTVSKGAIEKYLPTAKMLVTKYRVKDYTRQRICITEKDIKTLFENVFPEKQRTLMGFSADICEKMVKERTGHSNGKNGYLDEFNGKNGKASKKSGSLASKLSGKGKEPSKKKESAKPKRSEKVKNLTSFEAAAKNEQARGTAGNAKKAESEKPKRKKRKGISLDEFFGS

DP1 (PolD small subunit);DP2 (PolD large subunit);TkoPCNA (PCNA1), sequence (Q5JET0 1-963, one chain of several): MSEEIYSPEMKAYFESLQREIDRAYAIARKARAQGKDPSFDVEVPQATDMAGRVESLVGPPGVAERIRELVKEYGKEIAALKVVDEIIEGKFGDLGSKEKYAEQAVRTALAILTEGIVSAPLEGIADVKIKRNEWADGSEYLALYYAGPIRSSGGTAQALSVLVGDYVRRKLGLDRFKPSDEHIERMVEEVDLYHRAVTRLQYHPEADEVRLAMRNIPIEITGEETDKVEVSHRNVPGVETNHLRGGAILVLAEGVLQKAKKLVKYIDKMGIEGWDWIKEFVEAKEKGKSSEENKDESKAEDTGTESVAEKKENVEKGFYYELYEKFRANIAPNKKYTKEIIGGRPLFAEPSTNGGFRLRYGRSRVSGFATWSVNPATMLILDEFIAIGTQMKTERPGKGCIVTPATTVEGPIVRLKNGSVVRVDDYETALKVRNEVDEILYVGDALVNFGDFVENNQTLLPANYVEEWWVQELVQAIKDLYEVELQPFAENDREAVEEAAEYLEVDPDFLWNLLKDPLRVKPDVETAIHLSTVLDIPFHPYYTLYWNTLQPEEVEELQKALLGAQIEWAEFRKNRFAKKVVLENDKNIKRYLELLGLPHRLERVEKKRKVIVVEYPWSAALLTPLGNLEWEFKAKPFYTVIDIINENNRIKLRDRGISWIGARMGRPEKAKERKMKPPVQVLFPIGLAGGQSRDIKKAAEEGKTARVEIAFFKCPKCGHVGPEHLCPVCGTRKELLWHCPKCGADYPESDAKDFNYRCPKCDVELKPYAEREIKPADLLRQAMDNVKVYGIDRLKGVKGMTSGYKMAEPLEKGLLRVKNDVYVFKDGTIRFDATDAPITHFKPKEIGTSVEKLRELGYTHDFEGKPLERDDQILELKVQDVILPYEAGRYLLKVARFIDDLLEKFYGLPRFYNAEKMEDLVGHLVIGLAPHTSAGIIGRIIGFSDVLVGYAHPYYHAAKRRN

Q: Which response ([1]; parent: est. 700) does the source give for “PolDΔPIP: PolD with DP2(Δ1314-1324) DP1:K326A; DP1:K328A; DP2:K432A; DP2:R434A; DP2:R781A” here?
A: Its response is 150 RU.

Q: How did the response ([1]; parent: est. 1050) turn out when “Thermococcus kodakarensis DNA polymerase D (PolD), wild type, DP1-DP2 heterodimer DP1:K326A; DP1:K328A; DP2:K432A; DP2:R434A; DP2:R781A” was run?
A: The response was 450 RU.

B1: Thermococcus kodakarensis proliferating cell nuclear antigen PCNA1 (TkoPCNA), homotrimer (natural protein)
chain: MPFEVVFDGAKEFADLIATASNLIDEAAFKFTEEGISMRAMDPSRVVLIDLNLPESIFSKYEVEEPETIGINMDQFKKILKRGKAKDTLILRKGDENFLEITFEGTAKRTFRLPLIDVEELELELPELPFTAKVVLLGEVLKEGIKDASLVSDAIKFIAKENEFTMKAEGETNEVEIRLTLEDEGLLDLEVEEETKSAYGIRYLSDMVKGIGKADEVILRFGNEMPLQMEYMIRDEGRLTFLLAPRVEE
notes: source: purified as described previously [23]
Q: Which Kd [2] does the source give for B1 here?
A: Its Kd is 12000 nM.

Q: And the Kd [3]?
A: Its Kd is 4500 nM.

Q: And the Kd [4]?
A: Its Kd is 480 nM.

Q: What about the Kd [5] of the same molecule?
A: Its Kd is 1300 nM.

Q: And the “stoichiometry N” value [6]?
A: The value was 3.

Q: What about the koff [7] of the same molecule?
A: Its koff is 0.016 s⁻¹.

Q: What about the koff [8] of the same molecule?
A: The koff was 0.0087 s⁻¹.

Q: What about the koff [9] of the same molecule?
A: The koff was 0.0048 s⁻¹.

Q: And the koff [10]?
A: The koff was 0.006 s⁻¹.

B2: primed DNA (30/45) (dsDNA)
DNA 1: CGAACTGCCTGGAATCCTGACGACATGTAG
DNA 2: TGAGGTGATCGTTCGCTACATGTCGTCAGGATTCCAGGCAGTTCG
modifications: four successive phosphorothioates near the 3' end of both strands
Q: Does B2 bind [11]?
A: Result: binds

B3: primed DNA Cy5-pri32/temp45 (dsDNA)
DNA 1: CGAACTGCCTGGAATCCTGACGACATGTAGCG
DNA 2: TGAGGTGATCGTTCGCTACATGTCGTCAGGATTCCAGGCAGTTCG
Q: Does B3 bind [12]?
A: Result: binds

Q: Does B3 bind (DP2CTD)?
A: Result: binds
